# Measurements from the supplement of paper PMC10126150.
# ± gives the standard deviation of the averaged measurements.
# Tested on: ATP
# Test: switch fluorescence ratio, 500 uM ATP over buffer (Cy3 cluster intensity, sum of 5 cycles each) (fold (ratio)); higher = stronger signal-on switching upon ATP binding; sequences stand for … in TCGTCGGCAGCGTCAGATGTGTATAAGAGACAGTTTTTTTTTTTTTTTTTTTTTTTTT…TC
# Details: aptamer strand: ATP DNA aptamer (quencher-CACCTGGGGGAGTATTGCGGAGGAAGG + anchor), 100 nM annealed; ATP concentration: 500 uM
# Outline: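 Clusters carrying Cy3-labelled switching strands on a modified Illumina MiSeq flow-cell were annealed to 100 nM quencher-labelled ATP aptamer and imaged in selection buffer. They were imaged again after 15 min with 500 uM ATP at 22 °C, over five buffer/ATP cycles with NaOH stripping and re-annealing in between. For each cluster, the fluorescence ratio is the summed Cy3 intensity of the target cycles divided by that of the buffer cycles, averaged per switch-domain sequence. Clusters outside 100-1000 RFU were left out.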
# 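Note: ATP exposure 15 min at 22 °C before imaging.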
row,Sequence,switch fluorescence ratio
1,CAAGTTCAAA,1.013 ± 0.0055
2,GACCTATTCG,1.01 ± 0.018
3,GCGGACAGGA,1 ± 0.029
4,AATGAGTGTG,0.9805 ± 0.0029
5,GAACTTAGAG,1.02 ± 0.03
6,ACTGATCATG,1.02 ± 0.028
7,GCTTCGGCGC,1.03 ± 0.046
8,AGCTGCGACG,0.992 ± 0.044
9,GCGGGTTGCC,0.9871 ± 0.0013
10,TAAGGGAAAA,0.977 ± 0.023
11,AATCTTCTGG,0.98 ± 0.025
12,TTCGGAGGAT,1.02 ± 0.048
13,GCAAGGGTGT,1.153 ± 0.0013
14,TGGAAATGCC,1.07 ± 0.065
15,CGGTGAATAC,2.67 ± 0.064
16,ACGATCAGGA,1.026 ± 0.0029
17,AGTAAAATT,0.9865 ± 0.0036
18,CGATGTATTT,1.01 ± 0.048
19,TTAACGTGTG,0.975 ± 0.029
20,CATTTAAAG,1.01 ± 0.031
21,ATGAGCACAA,1.09 ± 0.017
22,TTCGCTCTTT,1.06 ± 0.025
23,ACAGGTAGGT,1 ± 0.055
24,ACGTTATTGG,1.14 ± 0.02
25,TTCTGGGCGG,1.02 ± 0.032
26,TTTCAAGTGG,1.014 ± 0.0096

row,Sequence,switch fluorescence ratio
1,CTCATATGGA,1.01 ± 0.048
2,GCAACCCTAA,1.02 ± 0.055
3,CGGCGTTCCG,1 ± 0.055
4,CGTGGGTTCG,0.961 ± 0.025
5,TTCCAAACGG,0.989 ± 0.014
6,ACTTCTGGTG,1.23 ± 0.031
7,CGTAGAGCGG,1 ± 0.074
8,GTTGGCAGGC,1.03 ± 0.028
9,AAAGTTTTTT,1.19 ± 0.39
10,TTGGGGTGTC,1.01 ± 0.021
11,AGAGCGAGGA,0.986 ± 0.027
12,TTTATAATTG,1.03 ± 0.028
13,AGGTGATGGG,1.04 ± 0.023
14,AGCGATTTTT,1.01 ± 0.053
15,GCCGTAGTCG,1.03 ± 0.042
16,ATTATTCACC,1.01 ± 0.02
17,GCTTCAAGTT,0.985 ± 0.027
18,AGGCTCCTCG,1.039 ± 4.4e-05
19,GGGGTCTTGG,1.03 ± 0.038
20,TCGGGGAATT,0.989 ± 0.032
21,GCCTACGGCC,1.004 ± 0.0021
22,TTGCTTTTGT,1.02 ± 0.025
23,CGCGGGTATT,1.02 ± 0.017
24,TATTCATTTG,1.027 ± 0.0068
25,TCACGCCGGG,1.04 ± 0.019
26,ATGACTGGAG,0.9896 ± 0.0076

row,Sequence,switch fluorescence ratio
1,CAGTTTTTTC,1.005 ± 0.0054
2,AAGTTCATGG,0.973 ± 0.012
3,AGTTTCGCGG,0.9632 ± 0.0037
4,CATATATGTC,1 ± 0.056
5,TTTAGGGAGG,0.974 ± 0.026
6,ACATCACTAA,1.306 ± 0.0079
7,GATTGAACGG,0.997 ± 0.0086
8,TTCCATATCG,1.03 ± 0.061
9,AGAAGTAATG,0.997 ± 0.011
10,CGAGCGGGTA,0.989 ± 0.028
11,ATATTATGAT,0.985 ± 0.03
12,GGGTCAGAGA,0.987 ± 0.019
13,GGTCGTTGCT,0.9456 ± 0.0046
14,AGCTGGTGGC,1.01 ± 0.078
15,TTTAGTTTCG,1.02 ± 0.025
16,GGAGGATTGG,0.958 ± 0.017
17,TGATCGGGGG,0.982 ± 0.064
18,TTTTGGTGGA,0.988 ± 0.014
19,TGAGGGTGCT,1.04 ± 0.037
20,ATAAACCTTG,1.16 ± 0.031
21,CACCTGTCCG,1.06 ± 0.02
22,AATAGGGGGA,1.01 ± 0.034
23,TCGGGTAAAG,0.9947 ± 0.0053
24,ACTCATTCGG,1.01 ± 0.015
25,GGGAAGAGGG,1 ± 0.016
26,TGAACGTTTT,1.04 ± 0.029

row,Sequence,switch fluorescence ratio
1,AGGGTTTGAG,1.11 ± 0.2
2,TGGCAGTGGT,0.993 ± 0.03
3,CGTGACTCTA,1.03 ± 0.046
4,AACTATAAAA,1 ± 0.014
5,TCGAGATGTA,1.03 ± 0.067
6,TAAATGGAAA,0.999 ± 0.051
7,CAGCCGACCG,1.163 ± 0.0088
8,CATGAGTAAG,1 ± 0.015
9,TGCTGAAAGA,1.04 ± 0.028
10,ATTAAGGCAA,1.1 ± 0.014
11,TGCGAGGCTT,1.022 ± 0.0058
12,TGTTATACGT,1.02 ± 0.019
13,TGGCTCGGGG,1.03 ± 0.051
14,TTTTTTCTGG,1 ± 0.091
15,TAGGGTGGGA,0.99 ± 0.025
16,TGGTGCGGGC,1.05 ± 0.12
17,AAGGGTTAGG,1.03 ± 0.023
18,TATAAGTTTG,0.999 ± 0.015
19,CTTGGGGCTT,0.985 ± 0.014
20,TTTTTATTG,1.02 ± 0.018
21,ATGTGGAATG,0.994 ± 0.037
22,GTACGAAGTT,0.973 ± 0.013
23,TATAGGTTT,1.01 ± 0.02
24,TTTCTTGTCT,1.01 ± 0.035
25,TCTTTGCCGT,0.982 ± 0.021
26,CCGTTGAGTG,0.995 ± 0.024

row,Sequence,switch fluorescence ratio
1,TTGGGGGTGG,1.01 ± 0.04
2,TAAATTTAAT,0.982 ± 0.034
3,AGGATTTGAG,1 ± 0.013
4,TCATAGCGGT,1.095 ± 0.0014
5,TACGTTTCT,1 ± 0.054
6,TTTGAGAGGT,1.05 ± 0.03
7,AAGCGGGGAC,1.07 ± 0.013
8,TTGAGCTTGT,1.02 ± 0.027
9,TAAGGGAGTT,0.9874 ± 0.0095
10,AAGCATGCTC,1.09 ± 0.03
11,TGGTACGGAG,1 ± 0.011
12,TGTTGGTAAT,0.996 ± 0.012
13,TATGCGAGTC,0.952 ± 0.036
14,GGGCAAAATG,0.981 ± 0.036
15,TTACGTTTGT,1.02 ± 0.07
16,GTAGGACTTG,0.953 ± 0.025
17,GTGTTTGTCA,0.981 ± 0.017
18,GCTCCTGACT,1.15 ± 0.026
19,ATTAGGAGAC,1.005 ± 0.008
20,TAATTTTTT,1 ± 0.038
21,CTGTGTCTTT,0.995 ± 0.072
22,GGCGTCAGGG,1 ± 0.051
23,TCGAGGCTGT,1.18 ± 0.05
24,AGAAGCTATT,0.9724 ± 0.0017
25,ATGCTGATGT,1.016 ± 0.0011
26,ATAGTTGGTT,1.01 ± 0.03

row,Sequence,switch fluorescence ratio
1,CGGGCTTCCT,1.21 ± 0.22
2,CTCGGACCTT,1.19 ± 0.017
3,GGTTAAGTGC,1.01 ± 0.029
4,ATTCCCAGGG,2.067 ± 0.017
5,TGGTAGGCGT,0.987 ± 0.031
6,TAGAGGTAGG,0.979 ± 0.018
7,TATATTTG,0.9883 ± 0.0065
8,TCACGGGGGT,1.17 ± 0.23
9,TAAGAACGAT,0.987 ± 0.053
10,TTAGCGTATG,1.01 ± 0.031
11,GGAATGTTTT,0.994 ± 0.023
12,TTTTATAGGA,0.976 ± 0.006
13,TGGGTTTGGG,0.984 ± 0.035
14,CCTCATTCGG,1.06 ± 0.021
15,ATTTTTAAGG,0.995 ± 0.021
16,CGGGACACGT,0.9677 ± 0.0063
17,TTACAAAATA,1.03 ± 0.048
18,TACTATCGTT,0.994 ± 0.01
19,GCGGTGTTGG,0.9887 ± 0.006
20,TTTTCGCATT,1.23 ± 0.051
21,TCATGGAAGG,1.01 ± 0.026
22,TGCAGGGAGG,1.02 ± 0.0064
23,CCGTTGGATT,0.983 ± 0.01
